This note sets out measurements from US20070196872A1.

The target of experiment [1] is LRP5 (Zmax1) (UniProt O75197). The experiment is described as follows: cell-based or functional assay.
The target of experiment [2] is Frizzled4 (UniProt Q9ULV1). The experiment is described as follows: cell-based or functional assay.

Where only a bound is given, the exact number is not on record here.

Chain of Norrin (Q00604 25-133 limits assumed): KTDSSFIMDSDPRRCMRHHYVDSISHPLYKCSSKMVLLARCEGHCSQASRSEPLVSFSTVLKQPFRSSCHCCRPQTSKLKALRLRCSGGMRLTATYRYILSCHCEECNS
Chain of UniProt Q9ULV1 (Q9ULV1 37-537 limits assumed): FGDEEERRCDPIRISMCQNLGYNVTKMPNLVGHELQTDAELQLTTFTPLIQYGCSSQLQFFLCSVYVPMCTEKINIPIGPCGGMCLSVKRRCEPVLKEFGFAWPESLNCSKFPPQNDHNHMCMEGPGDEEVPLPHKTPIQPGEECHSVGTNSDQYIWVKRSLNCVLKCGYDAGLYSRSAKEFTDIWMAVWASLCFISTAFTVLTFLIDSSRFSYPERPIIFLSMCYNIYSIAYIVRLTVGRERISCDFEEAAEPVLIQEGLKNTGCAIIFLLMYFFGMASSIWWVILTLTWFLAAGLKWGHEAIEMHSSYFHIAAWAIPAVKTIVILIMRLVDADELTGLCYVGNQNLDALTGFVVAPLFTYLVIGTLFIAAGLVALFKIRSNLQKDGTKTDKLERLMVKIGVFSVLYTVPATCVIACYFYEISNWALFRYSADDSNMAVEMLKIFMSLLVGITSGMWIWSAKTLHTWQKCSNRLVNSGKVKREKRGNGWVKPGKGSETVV
Chain of UniProt O75197 (O75197 32-1615 limits assumed): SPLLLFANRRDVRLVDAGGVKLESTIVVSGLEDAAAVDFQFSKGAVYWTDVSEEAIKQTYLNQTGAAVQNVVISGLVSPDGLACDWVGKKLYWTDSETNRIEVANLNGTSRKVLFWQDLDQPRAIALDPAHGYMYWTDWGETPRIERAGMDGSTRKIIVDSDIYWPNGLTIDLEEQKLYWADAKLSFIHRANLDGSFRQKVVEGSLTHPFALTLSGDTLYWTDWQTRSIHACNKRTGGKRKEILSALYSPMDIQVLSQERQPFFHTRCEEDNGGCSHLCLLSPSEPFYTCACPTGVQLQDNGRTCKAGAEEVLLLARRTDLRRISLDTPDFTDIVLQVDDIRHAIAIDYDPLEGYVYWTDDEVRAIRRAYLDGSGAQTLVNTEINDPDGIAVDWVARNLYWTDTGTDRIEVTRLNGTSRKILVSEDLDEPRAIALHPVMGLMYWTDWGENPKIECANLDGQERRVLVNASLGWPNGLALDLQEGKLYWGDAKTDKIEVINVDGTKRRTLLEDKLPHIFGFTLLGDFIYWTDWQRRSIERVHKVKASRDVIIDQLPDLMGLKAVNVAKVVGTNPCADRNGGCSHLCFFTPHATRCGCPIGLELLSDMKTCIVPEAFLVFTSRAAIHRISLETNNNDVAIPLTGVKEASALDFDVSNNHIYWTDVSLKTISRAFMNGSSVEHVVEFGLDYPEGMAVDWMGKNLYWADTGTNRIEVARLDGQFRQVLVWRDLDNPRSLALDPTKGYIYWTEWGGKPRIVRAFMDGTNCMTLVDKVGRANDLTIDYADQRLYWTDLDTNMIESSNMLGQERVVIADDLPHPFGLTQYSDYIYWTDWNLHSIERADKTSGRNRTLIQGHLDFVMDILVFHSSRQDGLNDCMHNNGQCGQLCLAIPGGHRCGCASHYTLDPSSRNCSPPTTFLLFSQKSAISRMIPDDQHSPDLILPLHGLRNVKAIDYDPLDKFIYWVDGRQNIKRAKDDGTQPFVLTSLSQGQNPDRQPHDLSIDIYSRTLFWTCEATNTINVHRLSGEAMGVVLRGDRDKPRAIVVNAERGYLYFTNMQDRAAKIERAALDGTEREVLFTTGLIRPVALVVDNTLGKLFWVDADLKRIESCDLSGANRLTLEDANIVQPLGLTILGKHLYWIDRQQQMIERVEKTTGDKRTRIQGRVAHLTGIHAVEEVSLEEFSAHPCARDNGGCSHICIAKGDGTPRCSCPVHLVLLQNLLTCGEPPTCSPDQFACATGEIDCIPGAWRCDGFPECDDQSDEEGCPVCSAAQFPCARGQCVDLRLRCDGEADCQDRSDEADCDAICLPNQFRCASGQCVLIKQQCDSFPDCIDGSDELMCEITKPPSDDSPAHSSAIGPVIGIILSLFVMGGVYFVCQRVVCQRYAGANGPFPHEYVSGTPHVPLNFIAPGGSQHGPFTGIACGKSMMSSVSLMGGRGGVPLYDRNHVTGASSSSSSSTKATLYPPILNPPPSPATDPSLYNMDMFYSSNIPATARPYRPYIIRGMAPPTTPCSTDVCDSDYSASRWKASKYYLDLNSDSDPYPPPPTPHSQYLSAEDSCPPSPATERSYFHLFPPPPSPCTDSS

Take “Norrin (from UniProt Q00604 25-133) (ligand)”: the ratio of TCF-luci to renilla luminescence, Norrin and LRP5 co-transfected in U20S cells in experiment [1] came out at 6 fold. In experiment [2], the TCF activity, further enhancement when Fz4, LRP5 and Norrin were all co-transfected in U20S cells was 2 to 6 fold; the TCF response (TCF-luci to renilla), Norrin and Fz4 co-transfected in HEK-293A cells is 6 fold; the TCF-signal, LRP5 co-transfected along with Fz4 and Norrin in HEK-293 cells is < 16 fold; the ratio of TCF-luci to renilla luminescence, Norrin cDNA alone transfected in U20S cells (endogenous Fz4 inferred) was in the range of 2 to 3 fold. In experiment [2], the ratio of TCF-luci to renilla signal, Fz4 and Norrin co-transfected in U20S cells was found to be 15 fold.
